For 72 sequences, protein stability index results are on record in the supplement of paper PMC10567573.

± gives the standard deviation.

The nature of this series: protein stability index of a GFP-peptide fusion (GPS, HEK-293T) (PSI 1-6); higher = more stable.
[1] abbreviates: treatment: DMSO, c terminus: a fixed tail appended.
Setting [2] is: treatment: MLN4924 1 uM, 8 h, c terminus: a fixed tail appended.
Setting [3] is: treatment: DMSO, c terminus: native.
Where [4] appears, read: treatment: MLN4924 1 uM, 8 h, c terminus: native.
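Further: 24-mer peptide tiles fused after GFP, lentivirally expressed, FACS-sorted into six equal bins by GFP/DsRed ratio, decoded by Illumina sequencing, PSI is the read-weighted mean bin number.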

As to GLIPTGSGRHPSHSTTPSGPGDEV [ARFIP2], the protein stability index turned out to be 5.08 ± 0.17 under setting [1] and 5.04 ± 0.1 under setting [2]. For GLTDVSQIITVTVQTGLDQYQQVP [IQUB], in that order: 2.26 ± 0.085 and 2.47 ± 0.23.

With GMASFRFPETTFISVTAYQNPQIT [TBX6], the protein stability index is, setting by setting: under setting [1], 2.34 ± 0.62; under setting [2], 2.29 ± 0.11. The corresponding values for GMLSYCDRYSEGIKHVLQTFGPIP [CRYL1] are 2.72 ± 0.5 and 2.196 ± 0.02. For GNPSTNSRVTASSGITIPKPPKPP [SMARCE1], in that order: 4.67 ± 0.32 and 4.7 ± 0.13. For GNTESELKKLAEENPDLQEAYIAK [GDAP1], in that order: 5.51 ± 0.26 and 5.5 ± 0.26. Take GPGEPDVRDGFSATFEKILESELL [PSD2]: the protein stability index under setting [1] was 3.91 ± 0.25 and the protein stability index under setting [2] came to 4.03 ± 0.34. For GPLAETTEDFWRMLWEHNSTIVVM [PTPRD], in that order: 2.48 ± 0.42 and 2.4 ± 0.33. For GQFYLDLYPREGKYNHAACFGLQP [NLN], in that order: 1.91 ± 0.16 and 2.09 ± 0.31.

For GQLEFRALLFIPRRAPFDLFENKK [HSP90AB1], the protein stability index under setting [1] amounted to 2.22 ± 0.22. With GQMSTPETPQPSPPGGSGSEPYKL [HNF4A], the protein stability index is 5.16 ± 0.21 under setting [1] and 5.17 ± 0.19 under setting [2]. Turning to GRPPDPADWAVMDVVNYFRTVGFE [SAMD13], the protein stability index runs as follows: under setting [1], 2.57 ± 0.25; under setting [2], 2.78 ± 0.3.

As for GRRAATALLWLSCSIALLRALATS [GNAS], the protein stability index came out at 2.26 ± 0.37 under setting [1] and 2.02 ± 0.24 under setting [2].

GRRGWKKFYAVLKGTILYLQKDEY [PSD2]: the protein stability index runs as follows: under setting [1], 3 ± 0.4; under setting [2], 3.32 ± 0.37. Regarding GRVVPESQCQMETKPLAIHPCGDK [ADAMTSL2], the protein stability index runs as follows: under setting [1], 4.53 ± 0.17; under setting [2], 4.71 ± 0.46. For GSCQLGGGRGVSTCSTRFVSGGSA [KRT13], in that order: 3.32 ± 0.47 and 3.87 ± 0.21. Regarding GSCSTVGGVGYGDSKDCILEPLSL [ZNF277], the protein stability index turned out to be 3.59 ± 0.32 under setting [1] and 3.5 ± 0.24 under setting [2]. The corresponding values for GSGDSGDSSEEESHRVVLRPRGKE [LYSMD4] are 5.55 ± 0.19 and 5.35 ± 0.12.

Take GSPQQPGLSAPHSRQIPAPQGAVL [KISS1]: the protein stability index reads like this: under setting [1], 4.3 ± 0.15; under setting [2], 4.61 ± 0.28.

Take GSQLPKPRMLRESGHGDAHLQEYA [FATE1]: the protein stability index came out at 4.38 ± 0.25 under setting [1] and 4.5 ± 0.11 under setting [2]. The corresponding values for GTNAWEEIATKPHEKIGFPAARRC [KLHDC10] are 3.96 ± 0.22 and 3.91 ± 0.37. For GTPSPSRSRDSNSGPEEPLLEEEE [RTN2], in that order: 5.49 ± 0.24 and 5.72 ± 0.27. With GVAVGDWVLSIDGENAGSLTHIEA [PDLIM7], the protein stability index reads like this: under setting [1], 3.03 ± 0.5; under setting [2], 2.96 ± 0.36. The corresponding values for GVCGDRATGFHFNAMTCEGCKGFF [VDR] are 2.28 ± 0.13 and 2.38 ± 0.19. The corresponding values for GVFVGVISFGQLSDRFGRKKVYLT [SLC22A15] are 2.82 ± 0.43 and 2.7 ± 0.39. In the case of GVIQSVSSWKHGSGTQYVSTRQTQ [C18orf25], the protein stability index came out at 3.19 ± 0.11 under setting [1] and 3.52 ± 0.35 under setting [2].

Regarding GVPPLKLCKNLNREAQQYSEALAS [GLIPR2], the protein stability index by setting is: under setting [1], 3.89 ± 0.44; under setting [2], 3.96 ± 0.14.

Turning to GVPVQPVLIRYPNSLDTTSWAWRG [LPCAT4], the protein stability index was 2.28 ± 0.26 under setting [1] and 2.34 ± 0.31 under setting [2]. For GVSFQAISSMADFWDFAQGPLLDS [PKD2L1], in that order: 2.4 ± 0.29 and 2.87 ± 0.32. The corresponding values for GYNLRALAEGVSASLHTLLGDPCP [HDAC6] are 2.6 ± 0.31 and 2.64 ± 0.2.

Regarding GYSDRDGYGRDRDYSDHPSGGSYR [RBMX], the protein stability index is, setting by setting: under setting [1], 4.6 ± 0.31; under setting [2], 4.81 ± 0.45. For HCHKRRTRSCSSASSRSQQSSKRS [CLK3], in that order: 5.19 ± 0.26 and 5.06 ± 0.063.

In the case of HCMAPPLLHLDLKPANILLDAHYH [RIPK4], the protein stability index came out at 2.27 ± 0.23 under setting [1] and 2.38 ± 0.22 under setting [2]. For HCVTSDPATSPLVLAIPRRLRVEL [TRIM35], in that order: 2.3 ± 0.37 and 2.13 ± 0.44. For HEAFKDELKTFRLKTRSWAGERSR [CDC25B], in that order: 3.57 ± 0.3 and 3.8 ± 0.22. As for HEVKDNYIPVIKRALNSVPVIIAA [RHOBTB3], the protein stability index is 2.34 ± 0.34 under setting [1] and 2.18 ± 0.17 under setting [2]. For HEVREFKQLIYRVRRTDDTPVVLV [RIT1], in that order: 2.2 ± 0.29 and 2.24 ± 0.16. The corresponding values for HFHPTVIGESMYGDFEEAFDHLQN [TENT5C] are 3.82 ± 0.064 and 3.9 ± 0.37.

For HFWGEKNHGFEVLYHSVKQGPIST [FCHO1], the protein stability index by setting is: under setting [1], 2.44 ± 0.52; under setting [2], 2.48 ± 0.43.

Turning to HGDPIPKVEFTEEEIKTWGTVFQE [TPH1], the protein stability index reads like this: under setting [1], 4.87 ± 0.2; under setting [2], 4.86 ± 0.16. For HIDIVKELIKWRAAIVVNGHGMTP [FEM1B], in that order: 2.15 ± 0.53 and 2.17 ± 0.26.

Turning to HKKKSPGEKPHRCPQCGKCFARKS [ZNF449], the protein stability index runs as follows: under setting [1], 3.86 ± 0.55; under setting [2], 4.23 ± 0.43. On to HLTVHKRIHTGERPYMCKECGKAF [ZNF8], for which the protein stability index by setting is: under setting [1], 2.73 ± 0.28; under setting [2], 3.27 ± 0.38. For HMNVEALPEWISCLIQKAQWTVGK [RNF180], in that order: 2.32 ± 0.51 and 2.19 ± 0.34. For HPRGWNDHVHILDTETFTWSQPIT [KLHDC2], in that order: 2.42 ± 0.29 and 2.71 ± 0.54.

For the sequence HQPPYIIAVLPRYVEIRTFEPRLL [VPS39], the protein stability index turned out to be 2.61 ± 0.75 under setting [1] and 2.38 ± 0.37 under setting [2]. As for HRDLKPENLLLASKLKGAAVKLAD [CAMK2A], the protein stability index by setting is: under setting [1], 3.67 ± 0.22; under setting [2], 3.62 ± 0.091.

For HRPSTLQAASTPQAEEDWTCTIL [OAS1], the protein stability index reads like this: under setting [3], 4.18 ± 0.17; under setting [4], 4.45 ± 0.14. HRRDGKWQNVHFHCSGAPVAPLQ [CAMK2B]: the protein stability index by setting is: under setting [3], 2.39 ± 0.31; under setting [4], 2.6 ± 0.34. HSNGPTDLSMKGGASTTSTTPSAL [NOL4L] returned a protein stability index under setting [1] of 4.94 ± 0.19 and a protein stability index under setting [2] of 4.94 ± 0.3. Take HSPFSSESRALSTSSNLGSQYQCE [TBX5]: the protein stability index reads like this: under setting [1], 4.4 ± 0.35; under setting [2], 4.53 ± 0.22. Take HSQRTALHLAAQKALRTISTGRI [INVS]: the protein stability index is, setting by setting: under setting [3], 3.08 ± 0.9; under setting [4], 2.36 ± 0.086.

Regarding HSSDEDEDEDDEEDFEDDDEWED [WASL], the protein stability index by setting is: under setting [3], 3.19 ± 0.17; under setting [4], 3.33 ± 0.47. In turn, HTPGGQNQEILLPGGITSHQLLGL [TNXB] registered a protein stability index under setting [1] of 3.33 ± 0.22 and a protein stability index under setting [2] of 3.47 ± 0.31.

Regarding HTTIVATRHYRPPEVILELGWAQP [CLK3], the protein stability index was 2.26 ± 0.26 under setting [1] and 2.23 ± 0.16 under setting [2]. As for HVLALGLGIYIGKRLSTPSASTY [BNIP3L], the protein stability index is, setting by setting: under setting [3], 3.43 ± 0.86; under setting [4], 3.2 ± 0.64. On to HYYKENDPSVRLKIASLLGLLSKT [INTS4], for which the protein stability index by setting is: under setting [1], 2.05 ± 0.31; under setting [2], 2.18 ± 0.23. The corresponding values for IAAATSVLKTRFSYAFPKEFPYRM [CCNC] are 2.08 ± 0.12 and 2.58 ± 0.51.

Consider IAEDGTKEIESQGSIPGFLISSGM [TAF7L], for which the protein stability index came to 4.25 ± 0.28 under setting [1] and 4.21 ± 0.38 under setting [2].

As for IASIADVCESMKEQLLVLVEWAKY [HNF4A], the protein stability index reads like this: under setting [1], 2.42 ± 0.36; under setting [2], 2.15 ± 0.38. For ICMAQIAYSGNTSNLSYHLEKNHP [ZBED1], in that order: 2.3 ± 0.24 and 2.38 ± 0.26. For ICRVFSTSPAKDSLSFEDFLDLLS [CIB1], in that order: 2.34 ± 0.25 and 2.2 ± 0.1.

With IDSSSSWWTNWVIPAISAVAVALM [CYB5A], the protein stability index was 2.64 ± 0.14 under setting [1] and 2.69 ± 0.15 under setting [2].

The sequence IEAEGATAPLTELLHSRNEGVATY [CTNNB1] yielded a protein stability index under setting [1] of 4.32 ± 0.27 and a protein stability index under setting [2] of 4.31 ± 0.25. For IEAKEACDWLRATGFPQYAQLYED [DLC1], in that order: 3.21 ± 0.43 and 3.31 ± 0.083.

As to IEARRRALKRFVNLVARHPLFSED [SNX8], the protein stability index reads like this: under setting [1], 2.37 ± 0.67; under setting [2], 2.61 ± 0.43.

IETGENVTGMELEFKRLASSKAHT [PTPRD]: the protein stability index by setting is: under setting [1], 4.35 ± 0.12; under setting [2], 4.33 ± 0.29. For IEVQPNFEVPYYNRGLILYRLGYF [TTC32], in that order: 3.17 ± 0.4 and 2.73 ± 0.38.

Regarding IFLYARPNSTFPIDKSMTVVLTFI [OR4A15], the protein stability index under setting [1] was 2.84 ± 0.37 and the protein stability index under setting [2] was determined as 3 ± 0.3. The corresponding values for IFNYMRLGSTKLSDKDKAVGIFNT [OR3A1] are 2.1 ± 0.34 and 2.36 ± 0.25.

With IGDFGISKILSSKSKAYTVVGTPC [NEK8], the protein stability index reads like this: under setting [1], 2.35 ± 0.12; under setting [2], 2.47 ± 0.34. For IGELLAPAAPFDKKCGRENWTVAF [WSB1], in that order: 2.23 ± 0.12 and 2.57 ± 0.45.
